Results as given in patent US20200199554A1 (KATHOLIEKE UNIVERSITEIT LEUVEN, published 2020).

Biological target: the molecule itself
Experiment: zymogram (SDS-PAGE gel with embedded fish sperm DNA, renatured); self-association, dimer band
Experimental: In addition, the nuclease activity was confirmed by zymography. […] Then, the gel was washed three times for 5 min in mQ and incubated for 48 h in zymogram renaturation buffer (150 mM NaH₂PO₄ pH 7, 10 mM MgCl₂ and 0.1% Triton X-100), which allowed the proteins to refold to their native state. Finally, the gel was stained for 20 min in 0.5 μg/ml ethidium bromide and destained for 20 min in the zymogram renaturation buffer. After staining with ethidium bromide, the enzymes with nuclease activity were visible as non-fluorescent bands using an UV transilluminator. The impact of boiling on the renaturing capacity of Gp5 was tested by loading both preboiled (10 min, 95° C.) and non-preboiled samples. Clear bands were observed around 8-9 kDa, indicating the nuclease activity of Gp5 (MW=8.5 KDa) (for details see FIG. 4). […] Despite the small fraction of Gp5 that is present as a dimer on the zymogram, this dimer:monomer ratio is not necessarily present in vivo. After all, SDS is an anionic surfactant, negatively charging proteins to allow a separation based on the molecular weight in SDS-PAGE. This step generally involves also the disintegration of dimers into monomers. The removal of SDS in the renaturation step, might allow Gp5 to reassociate into dimers.
Clear bands were observed around 8-9 kDa in all samples, indicating the presence of Gp5. […] The protein concentrations are shown on the top.

B1: LUZ19_Gp5 (untagged, purified) (enzyme)
chain: MSSRDPYRIGHRVGLVNYSDRYLGADAAGTKGTIEAITRPSRCMTIYHVRCERTLRLIEAEARNVRFIRQRAER
notes: A few linker residues may remain at the N-terminus; also called Phage LUZ19 gp5; miniDNase
B1: binds.
